In the supplement of paper PMC12042874 one finds amyloid nucleation score data, which are given here for 134 substances.

± gives the uncertainty stated by the source.

The data set in a line: amyloid nucleation score (Sup35N fusion, yeast selection) (log enrichment); library NNK3; higher = more nucleation; inactive = no reads after selection. In short, it runs like this:
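Growth for 7 days at 30°C on medium lacking adenine and uracil followed a 24-hour induction with 100 μM copper sulfate of psi-negative yeast expressing peptides of 20 random codons fused to Sup35N. Input and output plasmid inserts were sequenced with Illumina, and sequences with under 100 input reads were excluded. Nucleation score is the DiMSum log enrichment of output over input reads, centred on the mode score of non-aggregating sequences.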
In turn, CDRRFYRMNLCKNPFNYRFG returned an amyloid nucleation score of 0.55 ± 0.16.

As to CDVVSSDMVFDLS, the amyloid nucleation score result is “inactive”.

With CDWRESVFRRAVTLPVALWM, the amyloid nucleation score entry was “inactive”.

CEEPFETIS yielded an amyloid nucleation score of 0.949 ± 0.25.

On to CEFRIFNWSFCSKRVGLRYV, for which the amyloid nucleation score entry was “inactive”.

CEFWNKYSNLWIWGWL showed an amyloid nucleation score of 0.51 ± 0.31.

Take CEHCMYNRKPR: the amyloid nucleation score entry was “inactive”.

Turning to CELANFKCLLGSQMFSEPLG, the amyloid nucleation score entry is “inactive”.

For the substance CESDEH, the amyloid nucleation score result was “inactive”.

CFCDVMQFWM: the amyloid nucleation score stood at 2.4 ± 0.067.

For the substance CFFEVKRSHSIRVFRIGCGV, the amyloid nucleation score entry was “inactive”.

As for CFFSRFILYPSLTLYMTMLR, the amyloid nucleation score entry is “inactive”.

CFLMN: the amyloid nucleation score entry is “inactive”.

On to CFMSLLNF, for which the amyloid nucleation score result was “inactive”.

With CFNNRARP, the amyloid nucleation score entry is “inactive”.

For the substance CFRCFGKGCHILAYGVYC, the amyloid nucleation score result is “inactive”.

On to CFRCS, for which the amyloid nucleation score entry is “inactive”.

Consider CGGIAFRNFLMNSGMPLEWK, for which the amyloid nucleation score entry is “inactive”.

Turning to CGIRHTVLVVSRVGGYVWCL, the amyloid nucleation score was -0.156 ± 1.1.

With CGRNAAVSNARRCCSSKVCM, the amyloid nucleation score entry was “inactive”.

CGWMEGLCQLYENKEMKHWH displayed an amyloid nucleation score of -0.261 ± 0.88.

As for CHDVLIKWNMVCTSVVEGEH, the amyloid nucleation score entry was “inactive”.

Regarding CHLCGMYSVCFLARSRLVLE, the amyloid nucleation score was found to be 0.067 ± 0.77.

Take CHNKKWVDFNVCFYNMLSFY: the amyloid nucleation score entry is “inactive”.

CHPGASSTGSKLTSRNCL: the amyloid nucleation score result was “inactive”.

Take CHQKMSVA: the amyloid nucleation score result is “inactive”.

Regarding CIAYNMVSDYVSIGFNAGDM, the amyloid nucleation score result was “inactive”.

CIFCRFFKVLVGHSYL: the amyloid nucleation score entry was “inactive”.

In the case of CIICFGPRNFESRRKQPDWR, the amyloid nucleation score result is “inactive”.

As for CIIFYCIYGFN, the amyloid nucleation score was 3.04 ± 0.073.

CILSVHGGILLFSIGAAFGR: the amyloid nucleation score amounted to 0.779 ± 0.27.

In turn, CILYYLNSSMVIGTCLFILN showed an amyloid nucleation score of 1.36 ± 0.085.

On to CISKCLVNNV, for which the amyloid nucleation score entry was “inactive”.

In turn, CIYCIVA had an amyloid nucleation score of 2.64 ± 0.087.

Consider CIYGKVFF, for which the amyloid nucleation score is 0.309 ± 0.28.

With CKARTSASSNQHRESVYGLE, the amyloid nucleation score result is “inactive”.

CKCEQVFLGLNLRYKEHDAW: the amyloid nucleation score result is “inactive”.

Regarding CKFFQGKEEVS, the amyloid nucleation score entry is “inactive”.

As for CKILHDRHMYVCLFAYCFVC, the amyloid nucleation score result was “inactive”.

As to CKRLPIACLTSLTKAR, the amyloid nucleation score entry was “inactive”.

Regarding CKTMFYY, the amyloid nucleation score entry was “inactive”.

On to CLDARYKMRV, for which the amyloid nucleation score entry is “inactive”.

Take CLFGHGY: the amyloid nucleation score entry was “inactive”.

Take CLFREA: the amyloid nucleation score result is “inactive”.

With CLFWMTWDVSRDS, the amyloid nucleation score entry was “inactive”.

Regarding CLGGQRHDVLPVCCWEFIME, the amyloid nucleation score entry was “inactive”.

On to CLGLHQILM, for which the amyloid nucleation score result is “inactive”.

CLHLWGVFKFFDVYWIMLMG: the amyloid nucleation score entry was “inactive”.

For CLMKIWLTVEGTSHRALGFR, the amyloid nucleation score entry is “inactive”.

CLNFFPSNSWILFILMIVQK: the amyloid nucleation score entry is “inactive”.

On to CLNGSCAMLSGLVCLLCNRQ, for which the amyloid nucleation score is 2.38 ± 0.058.

Consider CLRECWCSGNTTHGSHWSTC, for which the amyloid nucleation score entry was “inactive”.

For CLSRSCSFFYKATYLRSEMM, the amyloid nucleation score result is “inactive”.

Take CLSSSETPFSGDRTMA: the amyloid nucleation score was -0.046 ± 0.52.

Regarding CLVSLVFRFIVY, the amyloid nucleation score entry is “inactive”.

Take CLYLAS: the amyloid nucleation score entry is “inactive”.

On to CMAFLHPLF, for which the amyloid nucleation score result was “inactive”.

In the case of CMIHYSSRAILEMWLAPRMY, the amyloid nucleation score entry is “inactive”.

CMRLLTWIKPNWLLLVCLKT: the amyloid nucleation score entry was “inactive”.

Substance CMVCYLLPGSVSTCSCVRGI yielded an amyloid nucleation score of 2.75 ± 0.064.

As for CNFVNSKRNFLYTLG, the amyloid nucleation score result is “inactive”.

Take CNHVLTNRLMHSSKNRCLFI: the amyloid nucleation score result was “inactive”.

In the case of CNMDISVCYYRLLMWQRGFR, the amyloid nucleation score entry is “inactive”.

CNMGYSIFVFILNLSPV had an amyloid nucleation score of 1.99 ± 0.09.

On to CNNMYRERNNFWILMEWSLL, for which the amyloid nucleation score result is “inactive”.

For the substance CNPQTFSFVLMVRLCSKSGV, the amyloid nucleation score entry was “inactive”.

For the substance CNTPR, the amyloid nucleation score result is “inactive”.

Turning to CNVNIHYFGTV, the amyloid nucleation score entry was “inactive”.

With CNVRSFRFRCSGSPHSARSS, the amyloid nucleation score entry was “inactive”.

For CNYFVF, the amyloid nucleation score entry was “inactive”.

As to CNYLTMSGF, the amyloid nucleation score entry was “inactive”.

Regarding CNYNGLESILR, the amyloid nucleation score entry is “inactive”.

In the case of CPCGNVGVFLGLTRTVKGKS, the amyloid nucleation score entry was “inactive”.

The substance CPIWKDRDCFLLSIKYYALQ returned an amyloid nucleation score of -0.24 ± 0.31.

As to CPMVLSQEGSTAPEQCVGLG, the amyloid nucleation score entry was “inactive”.

Regarding CPTCESGKERGVKYVKFLNW, the amyloid nucleation score result was “inactive”.

For the substance CPYLSSVLHDAQLKATFING, the amyloid nucleation score was 1.11 ± 0.096.

Consider CQGIMDRRTSKRMPIANMVQ, for which the amyloid nucleation score entry was “inactive”.

Consider CQIKNGLDNQKTDYNSSPF, for which the amyloid nucleation score result was “inactive”.

Regarding CQPNWGWCSARIVLHILVLR, the amyloid nucleation score result is “inactive”.

For the substance CRFFSGFLRPRSNVGGNRYS, the amyloid nucleation score entry was “inactive”.

Consider CRFVNLFGCVGS, for which the amyloid nucleation score entry was “inactive”.

The substance CRGTEAGHPHVGIDHRARMV returned an amyloid nucleation score of -0.957 ± 1.8.

In the case of CRLSGEYFIDTDPEVFLALM, the amyloid nucleation score is 0.397 ± 0.17.

Consider CRRVTKFESAFTWIFCKSCD, for which the amyloid nucleation score was -0.013 ± 0.39.

Consider CRSGCAVYS, for which the amyloid nucleation score entry is “inactive”.

With CRTHSDVVVSTHFMNAWLSI, the amyloid nucleation score result is “inactive”.

Turning to CRVPSLVIC, the amyloid nucleation score result was “inactive”.

CRVRGAVRSLLHTVFKVDWV: the amyloid nucleation score result is “inactive”.

In the case of CRYQCRQLKVIVCSGDWNLV, the amyloid nucleation score entry is “inactive”.

On to CRYSSYVPVGLYKKWGICWM, for which the amyloid nucleation score entry is “inactive”.

With CRYSYSELKFVLFSGVGTSD, the amyloid nucleation score entry is “inactive”.

On to CSFIGYHGFVCLSVDIVLGC, for which the amyloid nucleation score is 1.51 ± 0.12.

On to CSGSDKVWTCLFLYAKKPRW, for which the amyloid nucleation score result was “inactive”.

As to CSGYARTLS, the amyloid nucleation score result was “inactive”.

As for CSGYSTNFGK, the amyloid nucleation score result was “inactive”.

With CSIGVRSVVCS, the amyloid nucleation score result is “inactive”.

For the substance CSLIQSVRSTA, the amyloid nucleation score result is “inactive”.

For the substance CSLRLVAFSACGV, the amyloid nucleation score entry was “inactive”.

On to CSNAGTCPCLCYRAILDQWV, for which the amyloid nucleation score is -0.401 ± 0.84.

As for CSNRFSNHFMYYVSMLGDGL, the amyloid nucleation score result is “inactive”.

Take CSPGRIFHNGK: the amyloid nucleation score result was “inactive”.

In the case of CSRALYGCDRISRGLLEVCG, the amyloid nucleation score result is “inactive”.

Regarding CSSGYIQKMVSRYMSYGYHF, the amyloid nucleation score result was “inactive”.

For CSTCISTNFSPY, the amyloid nucleation score entry is “inactive”.

For CSVGS, the amyloid nucleation score result is “inactive”.

With CSVLC, the amyloid nucleation score entry was “inactive”.

Substance CSVVWIMV came in with an amyloid nucleation score of -0.852 ± 0.8.

With CSYRRLIFILCD, the amyloid nucleation score result was “inactive”.

With CTFDWVLITLVEGSRAIW, the amyloid nucleation score result is “inactive”.

As for CTHHKNACL, the amyloid nucleation score entry was “inactive”.

Take CTNCNAKAYPWGTVSMPREW: the amyloid nucleation score result is “inactive”.

With CTRNEYIEW, the amyloid nucleation score entry is “inactive”.

As for CTSLRLESPDFFSKRERSSN, the amyloid nucleation score entry is “inactive”.

With CTTVDVGALVDGESNHCISL, the amyloid nucleation score entry was “inactive”.

Take CTYDSLRILAYRANQTNWFQ: the amyloid nucleation score was -0.278 ± 0.47.

Turning to CVCPKANVEYPMACFRHIIV, the amyloid nucleation score entry is “inactive”.

As for CVGMEVCGWEGS, the amyloid nucleation score result is “inactive”.

In the case of CVHYRFMLSRLYMILVPLTY, the amyloid nucleation score entry is “inactive”.

The substance CVNLYVELKFNHFDFVS returned an amyloid nucleation score of 2.04 ± 0.09.

On to CVNVLQPGVTHSRMANLCSG, for which the amyloid nucleation score entry is “inactive”.

Turning to CVRYWKLGVVLRDG, the amyloid nucleation score result is “inactive”.

On to CVSDNSS, for which the amyloid nucleation score was -0.003 ± 0.8.

Consider CVSGASKVNWGSCY, for which the amyloid nucleation score entry was “inactive”.

Regarding CVSSLIAKMGIVGCDGCYKG, the amyloid nucleation score result is “inactive”.

In turn, CVTSVAWANKICARQLFGAD showed an amyloid nucleation score of 0.204 ± 0.37.

Turning to CVVNSGFNLSCMIVSQSVSL, the amyloid nucleation score entry is “inactive”.

CVVYIGCNATGFKC registered an amyloid nucleation score of 1.87 ± 0.059.

Consider CWDEIHIMKAHIRSYGGSVS, for which the amyloid nucleation score result is “inactive”.

For CWDYWACGQGTA, the amyloid nucleation score result is “inactive”.

For CWRVYYLNVWVEVES, the amyloid nucleation score entry is “inactive”.

On to CWSSIYSNDQDFYWKSPLLS, for which the amyloid nucleation score result is “inactive”.

For the substance CYADPG, the amyloid nucleation score result is “inactive”.

Consider CYCVGHAVLCRPEHLCSVRL, for which the amyloid nucleation score result was “inactive”.
